Experimental findings from patent publication US20230158141A1 are described below.

The target in test [1] is T1, IL2Rb (UniProt P14784).
T1 sequence (looked up): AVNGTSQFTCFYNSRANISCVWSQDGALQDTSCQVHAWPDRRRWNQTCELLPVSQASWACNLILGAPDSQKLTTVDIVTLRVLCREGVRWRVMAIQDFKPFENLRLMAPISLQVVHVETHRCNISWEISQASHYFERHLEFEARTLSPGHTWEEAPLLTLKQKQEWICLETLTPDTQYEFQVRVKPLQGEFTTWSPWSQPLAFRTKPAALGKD
Nature of the test: IP and ELISA; Cys mutant, no arm.

Test [2] addresses T2, IL2 receptor gamma (UniProt P31785).
T2 sequence (looked up): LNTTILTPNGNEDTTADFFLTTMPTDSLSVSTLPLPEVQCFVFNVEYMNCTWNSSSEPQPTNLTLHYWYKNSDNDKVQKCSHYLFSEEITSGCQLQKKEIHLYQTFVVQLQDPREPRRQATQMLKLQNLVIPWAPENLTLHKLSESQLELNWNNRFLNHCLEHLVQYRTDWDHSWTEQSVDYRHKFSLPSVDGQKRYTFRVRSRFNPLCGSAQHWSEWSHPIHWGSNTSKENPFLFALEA
Description: IP and ELISA; S3 on the Cys. In general terms: An ELISA detects its analyte on a solid surface through an enzyme-linked reagent.

Substance “IL2-Leu80Cys (from UniProt P60568 21-153) (ligand)” displayed a binding activity after mutation, % of native IL2 in test [1] of 27%.

Turning to “IL2-Thr51Cys (from UniProt P60568 21-153) (ligand)”, in test [2], the binding activity after conjugating to S3, % of native IL2 is 89.7%.
